Experimental data: paper PMC5426795, “Controlling transferrin receptor trafficking with GPI-valence in bloodstream stage African trypanosomes” (PLoS Pathogens, 2017)

Experiments:
Test in all cases: native gel or EMSA; BN-PAGE (4-16% gradient) of 1% dodecylmaltoside extracts of cell lines cultured 24 hr with tetracycline, without or with 4 M urea; immunoblot with anti-TfR or anti-VSG221
[1] = molecular target: ESAG6, GPI-anchored subunit of the transferrin receptor (TfR) (T. brucei brucei (Lister 427))
[2] = molecular target: ESAG7, subunit of the transferrin receptor (TfR) without GPI anchor (T. brucei brucei (Lister 427))
[3] = molecular target: the molecule itself

In the case of “ESAG6, GPI-anchored subunit of the transferrin receptor (TfR) (natural protein)”, the stoichiometry N [1] is reported as 2.

For “ESAG7, subunit of the transferrin receptor (TfR) without GPI anchor (natural protein)”, the stoichiometry N [2] was 2.

B1: variant surface glycoprotein VSG221 (MITat1.2) (natural protein)
chain: AAEKGFKQAFWQPLCQVSEELDDQPKGALFTLQAAASKIQKMRDAALRASIYAEINHGTNRAKAAVIVANHYAMKADSGLEALKQTLSSQEVTATATASYLKGRIDEYLNLLLQTKESGTSGCMMDTSGTNTVTKAGGTIGGVPCKLQLSPIQPKRPAATYLGKAGYVGLTRQADAANNFHDNDAECRLASGHNTNGLGKSGQLSAAVTMAAGYVTVANSQTAVTVQALDALQEASGAAHQPWIDAWKAKKALTGAETAEFRNETAGIAGKTGVTKLVEEALLKKKDSEASEIQTELKKYFSGHENEQWTAIEKLISEQPVAQNLVGDNQPTKLGELEGNAKLTTILAYYRMETAGKFEVLTQKHKPAESQQQAAETEGSCNKKDQNECKSPCKWHNDAENKKCTLDKEEAKKVADETAKDGKTGNTNTTGSS
modifications: GPI anchor, C-terminal
notes: variant surface glycoprotein VSG221 of MITat1.2, T. brucei brucei Lister 427; Internal control of the BN-PAGE; also called dVSG; mVSG; source: endogenous, bloodstream form T. brucei brucei Lister 427 (MITat1.2), dodecylmaltoside extract
For B1, the “stoichiometry N” value [3] was 2.
